Key:
[1] = target: Standard VE-cadherin (standard solutions run with the Bender MedSystems BMS253 kit) (UniProt P33151); assay: Bender BMS253 ELISA kit; standard VE-cadherin at 1.25 ng/mL; first replicate
[2] = target: Standard VE-cadherin (standard solutions run with the Bender MedSystems BMS253 kit) (UniProt P33151); assay: Bender BMS253 ELISA kit; standard VE-cadherin at 5 ng/mL; second replicate
[3] = target: Standard VE-cadherin (standard solutions run with the Bender MedSystems BMS253 kit) (UniProt P33151); assay: Bender BMS253 ELISA kit; standard VE-cadherin at 0.63 ng/mL; first replicate
[4] = target: Standard VE-cadherin (standard solutions run with the Bender MedSystems BMS253 kit) (UniProt P33151); assay: Bender BMS253 ELISA kit; standard VE-cadherin at 2.5 ng/mL
[5] = target: Standard VE-cadherin (standard solutions run with the Bender MedSystems BMS253 kit) (UniProt P33151); assay: Bender BMS253 ELISA kit; standard VE-cadherin at 0.63 ng/mL; OD minus OD at 0 ng/mL
[6] = target: Standard VE-cadherin (standard solutions run with the Bender MedSystems BMS253 kit) (UniProt P33151); assay: Bender BMS253 ELISA kit; standard VE-cadherin at 10 ng/mL; first replicate
[7] = target: Standard VE-cadherin (standard solutions run with the Bender MedSystems BMS253 kit) (UniProt P33151); assay: Bender BMS253 ELISA kit; standard VE-cadherin at 0.16 ng/mL
[8] = target: Standard VE-cadherin (standard solutions run with the Bender MedSystems BMS253 kit) (UniProt P33151); assay: Bender BMS253 ELISA kit; standard VE-cadherin at 0.16 ng/mL; second replicate
[9] = target: Standard VE-cadherin (standard solutions run with the Bender MedSystems BMS253 kit) (UniProt P33151); assay: Bender BMS253 ELISA kit; standard VE-cadherin at 0.32 ng/mL; OD minus OD at 0 ng/mL
[10] = target: Standard VE-cadherin (standard solutions run with the Bender MedSystems BMS253 kit) (UniProt P33151); assay: Bender BMS253 ELISA kit; standard VE-cadherin at 0.32 ng/mL; first replicate
[11] = target: Standard VE-cadherin (standard solutions run with the Bender MedSystems BMS253 kit) (UniProt P33151); assay: Bender BMS253 ELISA kit; standard VE-cadherin at 0.16 ng/mL; OD minus OD at 0 ng/mL
[12] = target: Standard VE-cadherin (standard solutions run with the Bender MedSystems BMS253 kit) (UniProt P33151); assay: Bender BMS253 ELISA kit; standard VE-cadherin at 0.32 ng/mL; second replicate
[13] = target: Standard VE-cadherin (standard solutions run with the Bender MedSystems BMS253 kit) (UniProt P33151); assay: Bender BMS253 ELISA kit; standard VE-cadherin at 1.25 ng/mL
[14] = target: Standard VE-cadherin (standard solutions run with the Bender MedSystems BMS253 kit) (UniProt P33151); assay: Bender BMS253 ELISA kit; standard VE-cadherin at 5 ng/mL; first replicate
[15] = target: Standard VE-cadherin (standard solutions run with the Bender MedSystems BMS253 kit) (UniProt P33151); assay: Bender BMS253 ELISA kit; standard VE-cadherin at 0.16 ng/mL; first replicate
[16] = target: Standard VE-cadherin (standard solutions run with the Bender MedSystems BMS253 kit) (UniProt P33151); assay: Bender BMS253 ELISA kit; standard VE-cadherin at 10 ng/mL; OD minus OD at 0 ng/mL
[17] = target: Standard VE-cadherin (standard solutions run with the Bender MedSystems BMS253 kit) (UniProt P33151); assay: Bender BMS253 ELISA kit; standard VE-cadherin at 1.25 ng/mL; second replicate
[18] = target: Standard VE-cadherin (standard solutions run with the Bender MedSystems BMS253 kit) (UniProt P33151); assay: Bender BMS253 ELISA kit; standard VE-cadherin at 0.63 ng/mL
[19] = target: Standard VE-cadherin (standard solutions run with the Bender MedSystems BMS253 kit) (UniProt P33151); assay: Bender BMS253 ELISA kit; standard VE-cadherin at 0.32 ng/mL
[20] = target: Standard VE-cadherin (standard solutions run with the Bender MedSystems BMS253 kit) (UniProt P33151); assay: Bender BMS253 ELISA kit; standard VE-cadherin at 5 ng/mL; OD minus OD at 0 ng/mL
[21] = target: Standard VE-cadherin (standard solutions run with the Bender MedSystems BMS253 kit) (UniProt P33151); assay: Bender BMS253 ELISA kit; standard VE-cadherin at 10 ng/mL; second replicate
[22] = target: Standard VE-cadherin (standard solutions run with the Bender MedSystems BMS253 kit) (UniProt P33151); assay: Bender BMS253 ELISA kit; standard VE-cadherin at 1.25 ng/mL; OD minus OD at 0 ng/mL
[23] = target: Standard VE-cadherin (standard solutions run with the Bender MedSystems BMS253 kit) (UniProt P33151); assay: Bender BMS253 ELISA kit; standard VE-cadherin at 5 ng/mL
[24] = target: Standard VE-cadherin (standard solutions run with the Bender MedSystems BMS253 kit) (UniProt P33151); assay: Bender BMS253 ELISA kit; standard VE-cadherin at 0.63 ng/mL; second replicate
[25] = target: Standard VE-cadherin (standard solutions run with the Bender MedSystems BMS253 kit) (UniProt P33151); assay: Bender BMS253 ELISA kit; standard VE-cadherin at 2.5 ng/mL; second replicate
[26] = target: Standard VE-cadherin (standard solutions run with the Bender MedSystems BMS253 kit) (UniProt P33151); assay: Bender BMS253 ELISA kit; standard VE-cadherin at 2.5 ng/mL; first replicate
[27] = target: Standard VE-cadherin (standard solutions run with the Bender MedSystems BMS253 kit) (UniProt P33151); assay: Bender BMS253 ELISA kit; standard VE-cadherin at 2.5 ng/mL; OD minus OD at 0 ng/mL
[28] = target: Standard VE-cadherin (standard solutions run with the Bender MedSystems BMS253 kit) (UniProt P33151); assay: Bender BMS253 ELISA kit; standard VE-cadherin at 10 ng/mL

Chain of UniProt P33151 (P33151 48-593 limits assumed): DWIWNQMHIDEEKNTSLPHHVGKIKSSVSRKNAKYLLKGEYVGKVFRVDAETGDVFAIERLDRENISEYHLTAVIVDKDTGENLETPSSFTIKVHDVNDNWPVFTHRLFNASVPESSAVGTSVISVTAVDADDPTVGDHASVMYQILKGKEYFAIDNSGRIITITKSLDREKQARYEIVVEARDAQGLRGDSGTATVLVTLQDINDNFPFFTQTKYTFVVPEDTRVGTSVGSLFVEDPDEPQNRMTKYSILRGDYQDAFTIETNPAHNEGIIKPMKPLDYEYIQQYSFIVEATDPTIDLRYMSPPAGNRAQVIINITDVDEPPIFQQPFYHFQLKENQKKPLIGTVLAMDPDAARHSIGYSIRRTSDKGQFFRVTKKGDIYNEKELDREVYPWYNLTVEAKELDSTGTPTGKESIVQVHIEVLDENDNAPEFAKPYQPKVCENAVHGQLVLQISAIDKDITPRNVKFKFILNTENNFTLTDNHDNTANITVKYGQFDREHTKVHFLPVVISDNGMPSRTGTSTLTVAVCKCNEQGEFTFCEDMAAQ

OD [1]: 0.371 OD | OD [2]: 1.05 OD | OD [3]: 0.265 OD | mean OD [4]: 0.616 OD | corr. mean (OD) [5]: 0.136 OD | OD [6]: 2.41 OD | mean OD [7]: 0.154 OD | OD [8]: 0.162 OD | corr. mean (OD) [9]: 0.112 OD | OD [10]: 0.258 OD | corr. mean (OD) [11]: 0.046 OD | OD [12]: 0.181 OD | mean OD [13]: 0.413 OD | OD [14]: 1.29 OD | OD [15]: 0.145 OD | corr. mean (OD) [16]: 2.52 OD | OD [17]: 0.454 OD | mean OD [18]: 0.244 OD | mean OD [19]: 0.22 OD | corr. mean (OD) [20]: 1.06 OD | OD [21]: 2.85 OD | corr. mean (OD) [22]: 0.305 OD | mean OD [23]: 1.17 OD | OD [24]: 0.222 OD | OD [25]: 0.621 OD | OD [26]: 0.61 OD | corr. mean (OD) [27]: 0.508 OD | mean OD [28]: 2.63 OD
Substance: mAb provided in the human soluble VE-cadherin ELISA kit (Bender MedSystems, reference BMS253) (antibody)
